The values that follow come from US20240285753A1 (DUKE UNIVERSITY, published 2024).

Positions count from the first letter of the chain named. Like-named read-outs stand apart in the source and are kept apart here.

In experiment [1] the target is T1, S2hlx-Ex34.
T1 chain: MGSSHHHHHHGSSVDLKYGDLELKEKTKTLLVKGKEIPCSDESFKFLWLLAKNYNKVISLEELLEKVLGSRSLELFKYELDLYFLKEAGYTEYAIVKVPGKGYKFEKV
The experiment in a line: ELISA; antigen coated, mAb titrated. A general note: In an ELISA, binding on a coated surface is turned into a signal by an enzyme label.

For the next experiment, the target named is T2, S2hlx-Ex34 F1148A.
T2 epitope scaffold: T1 chain with F76A
The experiment in a line: ELISA; antigen coated, mAb titrated.

For the next experiment, the target named is T3, S2hlx-Ex34 L1145A.
T3 epitope scaffold: T1 chain with L73A
Description: ELISA; antigen coated, mAb titrated.

The next experiment has as its target T4, S2hlx-15.
T4 chain: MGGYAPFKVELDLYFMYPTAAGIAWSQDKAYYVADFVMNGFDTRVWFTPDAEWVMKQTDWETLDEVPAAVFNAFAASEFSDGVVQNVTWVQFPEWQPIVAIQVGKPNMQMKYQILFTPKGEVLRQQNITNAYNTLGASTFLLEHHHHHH
Description: ELISA, coated antigen, mAb titrated.

The next experiment deals with S2hlx-Ex8-Trx F1148A. The experiment in a line: ELISA; antigen coated, mAb titrated.
The target of experiment [2] is T1, S2hlx-Ex34. Description: SPR, mAb captured, antigen as analyte.
The target in the next experiment is T5, S2hlx-Ex8-Trx.
T5 chain: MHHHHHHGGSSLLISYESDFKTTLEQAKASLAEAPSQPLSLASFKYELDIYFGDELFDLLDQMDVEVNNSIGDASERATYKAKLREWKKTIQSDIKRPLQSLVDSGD
Description: SPR, mAb captured, antigen as analyte.

Another experiment has as its target T6, S2hlx-Ex54.
T6 chain: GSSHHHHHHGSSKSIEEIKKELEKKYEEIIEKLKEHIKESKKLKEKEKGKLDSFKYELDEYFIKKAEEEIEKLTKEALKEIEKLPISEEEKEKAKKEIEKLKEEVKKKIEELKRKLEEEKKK
The experiment in a line: SPR, single cycle; mAb captured on Protein A, epitope scaffold as analyte.

In the next experiment the target is T7, S2hlx-Ex46.
T7 epitope scaffold: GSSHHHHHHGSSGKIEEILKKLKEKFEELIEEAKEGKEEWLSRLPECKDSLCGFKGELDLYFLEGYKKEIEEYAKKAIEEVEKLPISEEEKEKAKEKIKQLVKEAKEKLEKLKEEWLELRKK
The description is as above.

Another experiment deals with T8, S2hlx-Ex37.
T8 chain: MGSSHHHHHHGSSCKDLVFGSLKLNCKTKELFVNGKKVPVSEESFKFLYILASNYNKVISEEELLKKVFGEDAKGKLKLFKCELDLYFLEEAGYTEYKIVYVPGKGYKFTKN
Described as above.

The next experiment concerns the target HKU-1 spike (2P) (human coronavirus HKU1). Description: ELISA, coated spike, mAb titrated.
In another experiment the target is T9, S2hlx-Ex4.
T9 construct: backbone grafting design
T9 chain: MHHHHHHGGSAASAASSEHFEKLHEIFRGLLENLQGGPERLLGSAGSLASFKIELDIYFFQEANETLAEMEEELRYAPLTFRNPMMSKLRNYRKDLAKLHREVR
Description: ELISA, coated antigen, mAb titrated.

For the next experiment, the target named is T10, S2hlx-Ex2.
T10 construct: backbone grafting design
T10 chain: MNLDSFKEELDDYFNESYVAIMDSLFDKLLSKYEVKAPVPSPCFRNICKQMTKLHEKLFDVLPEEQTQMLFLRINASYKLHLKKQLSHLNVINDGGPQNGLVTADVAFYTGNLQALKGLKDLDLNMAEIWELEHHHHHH
The experiment in a line: ELISA, coated antigen, mAb titrated.

A further experiment concerns the target T11, S2hlx-Ex3.
T11 construct: backbone grafting design
T11 chain: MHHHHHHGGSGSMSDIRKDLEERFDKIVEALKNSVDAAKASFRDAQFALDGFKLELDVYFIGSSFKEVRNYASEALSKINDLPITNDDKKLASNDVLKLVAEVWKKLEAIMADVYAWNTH
The experiment in a line: ELISA, coated antigen, mAb titrated.

Experiment [3] deals with T12, S2hlx-Ex20.
T12 chain: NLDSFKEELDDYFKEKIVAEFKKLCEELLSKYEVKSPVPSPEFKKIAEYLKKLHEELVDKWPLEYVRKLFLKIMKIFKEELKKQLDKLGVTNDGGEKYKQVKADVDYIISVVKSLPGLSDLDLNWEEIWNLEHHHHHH
The experiment in a line: SPR, mAb captured, antigen as analyte. For orientation: In SPR one partner is held on a chip, and binding of the other changes the refractive index at the surface.

In experiment [4] the target is T13, S2hlx-Ex15.
T13 chain: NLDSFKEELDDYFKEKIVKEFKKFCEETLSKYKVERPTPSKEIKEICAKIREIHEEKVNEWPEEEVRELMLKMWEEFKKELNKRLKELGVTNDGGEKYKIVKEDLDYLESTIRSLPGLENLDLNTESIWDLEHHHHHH
Description: SPR, mAb captured, antigen as analyte.

Experiment [5] concerns the target T14, S2hlx-Ex17.
T14 chain: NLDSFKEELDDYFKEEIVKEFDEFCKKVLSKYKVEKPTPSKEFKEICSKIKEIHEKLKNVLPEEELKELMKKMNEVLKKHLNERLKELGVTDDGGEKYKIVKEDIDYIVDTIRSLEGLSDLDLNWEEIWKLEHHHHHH
Description: SPR, mAb captured, antigen as analyte.

Another experiment has as its target S2hlx-4. Description: SPR, mAb captured, antigen as analyte.
For experiment [6], the target named is T12, S2hlx-Ex20. Description: SPR, mAb captured, antigen as analyte.
Experiment [7] has as its target T13, S2hlx-Ex15. Description: SPR, mAb captured, antigen as analyte.
In experiment [8] the target is T14, S2hlx-Ex17. The experiment in a line: SPR, mAb captured, antigen as analyte.

Chain of S2hlx-4 (chain, as listed by the source): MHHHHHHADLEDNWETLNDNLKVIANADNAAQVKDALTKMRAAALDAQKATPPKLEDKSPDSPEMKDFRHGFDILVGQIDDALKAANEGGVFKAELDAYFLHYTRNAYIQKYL

B1: S2P6 mAb (antibody, V domains shown)
VH: EVQLVQSGAEVKKPGASVKVSCKASGYTFTSQYMHWVRQAPGQGLEWIGIINPSGVHTSYAQKFQGRVTLTRDTSTSTLYMELSSLRSEDTAVYYCARGSPKGAFDYWGQGTLVTVSS
VL: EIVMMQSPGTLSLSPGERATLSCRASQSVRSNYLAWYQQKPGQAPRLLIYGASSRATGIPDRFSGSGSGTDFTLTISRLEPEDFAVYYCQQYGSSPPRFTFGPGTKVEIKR
One may read the EC50 (read off the curve) as the midpoint of the concentration-response curve. One may read the Kd as the concentration at which binding is half-saturated. Low readings indicate a tighter complex, high ones a looser complex. Turning to B1, the “EC50 (read off the curve)” value was approximately 0.02 µg/mL with S2hlx-Ex34 [1]; approximately 0.09 µg/mL in the experiment with S2hlx-Ex34 F1148A; approximately 0.02 µg/mL in the experiment with S2hlx-Ex34 L1145A; approximately 0.1 µg/mL with S2hlx-15; approximately 0.04 µg/mL with S2hlx-Ex8-Trx F1148A; approximately 0.3 µg/mL with HKU-1 spike (2P). For the same molecule, the “EC50 (read off the curve)” value was approximately 0.07 µg/mL with S2hlx-Ex4, approximately 0.07 µg/mL with S2hlx-Ex2 and approximately 0.06 µg/mL with S2hlx-Ex3. In addition, the dissociation constant Kd in the experiment with S2hlx-Ex34 [2] was found to be 143 nM; with S2hlx-Ex8-Trx it was 568 nM; with S2hlx-Ex54, 45.6 nM; in the experiment with S2hlx-Ex46, 296 nM; in the experiment with S2hlx-Ex37 it was 664 nM; with S2hlx-Ex20 [3], 10.7 nM. Also, the equilibrium dissociation constant (Kd) in the experiment with S2hlx-Ex15 [4] came out at 4 nM; with S2hlx-Ex17 [5] it was 29.6 nM; in the experiment with S2hlx-4, 47.7 nM; with S2hlx-Ex20 [6], 10.7 nM; with S2hlx-Ex15 [7] it was 6 nM; with S2hlx-Ex17 [8], 29.6 nM.
